Reference: publication PMC10437922, “DNAJB3 attenuates ER stress through direct interaction with AKT” (PLOS ONE, 2023)

Target: T1, His-AKT1 (human, UniProt P31749 1-480)
T1 construct: 'human' stands only before DNAJB3; also called pH6K-AKT1; source: E. coli BL21 (DE3), purified (Ni-NTA, gel filtration Superdex 200)
Assay: ITC; DNAJB3 (250 uM, syringe) titrated into 20 uM protein in the cell; 25°C; 25 mM Tris-HCl pH 8.0, 150 mM NaCl, 1 mM DTT; one-site binding model
Details: both partners purified

T1 sequence (P31749 whole entry): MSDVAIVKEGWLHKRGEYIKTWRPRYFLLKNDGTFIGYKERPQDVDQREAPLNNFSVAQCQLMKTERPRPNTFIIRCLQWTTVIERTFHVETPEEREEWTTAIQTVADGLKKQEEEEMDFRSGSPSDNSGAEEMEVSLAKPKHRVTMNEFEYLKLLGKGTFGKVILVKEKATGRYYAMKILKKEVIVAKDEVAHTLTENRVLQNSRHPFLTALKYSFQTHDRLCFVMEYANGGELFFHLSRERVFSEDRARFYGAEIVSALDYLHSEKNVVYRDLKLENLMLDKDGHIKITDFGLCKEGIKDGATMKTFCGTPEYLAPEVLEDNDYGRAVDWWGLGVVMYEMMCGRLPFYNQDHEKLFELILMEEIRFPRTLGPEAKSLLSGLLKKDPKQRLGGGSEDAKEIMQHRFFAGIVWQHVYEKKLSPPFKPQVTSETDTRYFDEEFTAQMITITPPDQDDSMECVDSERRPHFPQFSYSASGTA

Kd: ~62 µM
stoichiometry N: 0.84
B1: His-DNAJB3 (natural protein)
chain: not shown
notes: 6xHIS residues'; also called hDNAJB3; pH6K-DNAJB3; source: E. coli BL21 (DE3), purified (Ni-NTA, gel filtration Superdex 200)
